Measured values reported in paper PMC11417369, “DNA sequence and chromatin differentiate sequence-specific transcription factor binding in the human malaria parasite Plasmodium falciparum”.

What follows are binders tested against T1, PF3D7_0420300 D1 (Plasmodium falciparum, UniProt Q8I1N6 1956-2015) (assay: gcPBM; about 25 ug protein; PBS, 1% milk, 0.2 mg/ml BSA, salmon testes DNA, 0.03% Triton X-100). Conditions: tags: N-terminal GST (pGEX-4T-1), kept; label: surface-attached array probe.
T1 sequence: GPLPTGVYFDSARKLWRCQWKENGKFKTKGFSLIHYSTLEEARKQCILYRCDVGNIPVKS

| Binder | binding signal |
| --- | --- |
| CACACA_site8723 (dsDNA) DNA 1: TATTCCCCCCAACACACACACACACCGACATACCAC DNA 2: GTGGTATGTCGGTGTGTGTGTGTGTTGGGGGGAATA | 10.8 ln median PBM intensity, better of two orientations |
| CACACA_site748 (dsDNA) DNA 1: ATTTTTTTTTTTTCCTTACACACATATTTCATTTTA DNA 2: TAAAATGAAATATGTGTGTAAGGAAAAAAAAAAAAT | 9.99 ln median PBM intensity, better of two orientations |
| CACACA_site7579 (dsDNA) DNA 1: TATACACATATATACACACACATATATAAATAAATA DNA 2: TATTTATTTATATATGTGTGTGTATATATGTGTATA | 9.98 ln median PBM intensity, better of two orientations |
| CACACA_site8978 (dsDNA) DNA 1: TGAGTCTTTTACATTGCACACACATTTCTTTCCTTT DNA 2: AAAGGAAAGAAATGTGTGTGCAATGTAAAAGACTCA | 9.97 ln median PBM intensity, better of two orientations |
| CACACA_site7142 (dsDNA) DNA 1: TAGTAAAAGATATACACACACCAAAAAATATAATTA DNA 2: TAATTATATTTTTTGGTGTGTGTATATCTTTTACTA | 10 ln median PBM intensity, better of two orientations |
| CACACA_site8200 (dsDNA) DNA 1: AAACTTAATATCGGTACACACACAAGATAAGAATTA DNA 2: TAATTCTTATCTTGTGTGTGTACCGATATTAAGTTT | 9.96 ln median PBM intensity, better of two orientations |
| CACACA_site5776 (dsDNA) DNA 1: ATTATAAATACACGCACACACACTTATATATATATA DNA 2: TATATATATATAAGTGTGTGTGCGTGTATTTATAAT | 9.96 ln median PBM intensity, better of two orientations |
| CACACA_site4117 (dsDNA) DNA 1: TATATATATATAGACACACACACACCCATATATATA DNA 2: TATATATATGGGTGTGTGTGTGTCTATATATATATA | 10 ln median PBM intensity, better of two orientations |
| CACACA_site7188 (dsDNA) DNA 1: GTGCATAAATCATACACACACACATATATAAATATA DNA 2: TATATTTATATATGTGTGTGTGTATGATTTATGCAC | 9.95 ln median PBM intensity, better of two orientations |
| CACACA_site8938 (dsDNA) DNA 1: TAATTAAATACATTAACACACACACTAATATATACA DNA 2: TGTATATATTAGTGTGTGTGTTAATGTATTTAATTA | 10 ln median PBM intensity, better of two orientations |
| CACACA_site2053 (dsDNA) DNA 1: AAATTTATTATGAACATACACACAAAAAAAAAAAGT DNA 2: ACTTTTTTTTTTTGTGTGTATGTTCATAATAAATTT | 9.98 ln median PBM intensity, better of two orientations |
| CACACA_site4903 (dsDNA) DNA 1: AAAAACCATTGGCACACACACATAATATATAATATA DNA 2: TATATTATATATTATGTGTGTGTGCCAATGGTTTTT | 10 ln median PBM intensity, better of two orientations |

The binders below were run against T2, SIP2 D1 (Plasmodium falciparum, UniProt C6KSN9 177-235) in the same assay as above. Conditions: tags: N-terminal GST (pGEX-4T-1), kept; label: surface-attached array probe.
T2 sequence: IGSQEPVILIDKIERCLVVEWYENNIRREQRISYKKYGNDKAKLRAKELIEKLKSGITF

| Binder | binding signal |
| --- | --- |
| GTGCAC_site10768 (dsDNA) DNA 1: TATATATATCTTTTGGTGCATATTTCGAATATATGT DNA 2: ACATATATTCGAAATATGCACCAAAAGATATATATA | 10.2 ln median PBM intensity, better of two orientations |
| GTGCAC_site10226 (dsDNA) DNA 1: TTTTATGCGCAATAAGTGCATTTAAAATATATATAT DNA 2: ATATATATATTTTAAATGCACTTATTGCGCATAAAA | 8.59 ln median PBM intensity, better of two orientations |
| GTGCAC_site10065 (dsDNA) DNA 1: CTTAAAATATATTTAGTGCATATACTAATATATTAT DNA 2: ATAATATATTAGTATATGCACTAAATATATTTTAAG | 8.52 ln median PBM intensity, better of two orientations |
| GTGCAC_site10571 (dsDNA) DNA 1: GATTATTTCTAAAAAGTGCATATTTAAAAATCTCCT DNA 2: AGGAGATTTTTAAATATGCACTTTTTAGAAATAATC | 9.76 ln median PBM intensity, better of two orientations |
| GTGCAC_site10625 (dsDNA) DNA 1: TTTTTATTTTCATATGTGCACTTATATATATATATA DNA 2: TATATATATATATAAGTGCACATATGAAAATAAAAA | 10.1 ln median PBM intensity, better of two orientations |
| GTGCAC_site9721 (dsDNA) DNA 1: TATATATATATATATGTGCACTGGACATATTTTTAT DNA 2: ATAAAAATATGTCCAGTGCACATATATATATATATA | 9.71 ln median PBM intensity, better of two orientations |
| GTGCAC_site9748 (dsDNA) DNA 1: GTTAATCACCATGTGGTGCATATAAGGGCATATTAT DNA 2: ATAATATGCCCTTATATGCACCACATGGTGATTAAC | 10.1 ln median PBM intensity, better of two orientations |
| GTGCAC_site9697 (dsDNA) DNA 1: GAACATTTATTGTGTGTGCACAATTCTTTTTTAACC DNA 2: GGTTAAAAAAGAATTGTGCACACACAATAAATGTTC | 8.57 ln median PBM intensity, better of two orientations |
| GTGCAC_site9739 (dsDNA) DNA 1: TTATAAATATTCACTGTGCACTGATGGAATATAAAT DNA 2: ATTTATATTCCATCAGTGCACAGTGAATATTTATAA | 9.91 ln median PBM intensity, better of two orientations |
| GTGCAC_site10484 (dsDNA) DNA 1: AAATTTGCTTTACCAGTGCAAAAAAAAAAAAAAAAA DNA 2: TTTTTTTTTTTTTTTTTGCACTGGTAAAGCAAATTT | 8.74 ln median PBM intensity, better of two orientations |
| GTGCAC_site10446 (dsDNA) DNA 1: ATGTATCCAATAGGAGTGCATAATTCTATTAACACC DNA 2: GGTGTTAATAGAATTATGCACTCCTATTGGATACAT | 9.02 ln median PBM intensity, better of two orientations |
| GTGCAC_site9963 (dsDNA) DNA 1: AATAATAAAAATATTGTGCACTTGTATATTTATTAT DNA 2: ATAATAAATATACAAGTGCACAATATTTTTATTATT | 9.87 ln median PBM intensity, better of two orientations |
| GTGCAC_site9684 (dsDNA) DNA 1: TGTACGAGTCGTAGAGTGCAGTCTGGAGAAGAGTAC DNA 2: GTACTCTTCTCCAGACTGCACTCTACGACTCGTACA | 8.45 ln median PBM intensity, better of two orientations |
| GTGCAC_site9916 (dsDNA) DNA 1: TATTTCTTTTGGTTGGTGCATAAAATAATACAATAT DNA 2: ATATTGTATTATTTTATGCACCAACCAAAAGAAATA | 10.2 ln median PBM intensity, better of two orientations |
| GTGCAC_site10774 (dsDNA) DNA 1: ACGTTAAAATATTGGGTGCTAACACAATAAAAATAA DNA 2: TTATTTTTATTGTGTTAGCACCCAATATTTTAACGT | 8.87 ln median PBM intensity, better of two orientations |
| GTGCAC_site10531 (dsDNA) DNA 1: AGTAATTATTTTAGAGTGCATAGTTTTTTAATAAAT DNA 2: ATTTATTAAAAAACTATGCACTCTAAAATAATTACT | 8.98 ln median PBM intensity, better of two orientations |

| Binder | binding signal |
| --- | --- |
| GTGCAC_site10359 (dsDNA) DNA 1: TACACTTGTAATTGCGTGCACGAAGGATATATATAT DNA 2: ATATATATATCCTTCGTGCACGCAATTACAAGTGTA | 8.81 ln median PBM intensity, better of two orientations |
| GTGCAC_site9473 (dsDNA) DNA 1: TGTATTAACAAAAAGGTGCGGATATATATAAAAAAT DNA 2: ATTTTTTATATATATCCGCACCTTTTTGTTAATACA | 9.85 ln median PBM intensity, better of two orientations |
| GTGCAC_site10538 (dsDNA) DNA 1: TTATTATAATCATTAGTGCATATATTATTTTTATAT DNA 2: ATATAAAAATAATATATGCACTAATGATTATAATAA | 8.55 ln median PBM intensity, better of two orientations |
| GTGCAC_site10243 (dsDNA) DNA 1: ACATATTAAATATGAGTGCAATATATATATATATAA DNA 2: TTATATATATATATATTGCACTCATATTTAATATGT | 8.44 ln median PBM intensity, better of two orientations |
| GTGCAC_site10395 (dsDNA) DNA 1: ACTTTAGAAATAGAGGTGCTATTTTTATTACCACAC DNA 2: GTGTGGTAATAAAAATAGCACCTCTATTTCTAAAGT | 8.7 ln median PBM intensity, better of two orientations |
| GTGCAC_site10182 (dsDNA) DNA 1: GTATGATGCATAAGAGTGCATAAGGATATTTCTTCA DNA 2: TGAAGAAATATCCTTATGCACTCTTATGCATCATAC | 9.94 ln median PBM intensity, better of two orientations |
| GTGCAC_site10360 (dsDNA) DNA 1: TACCCTTGCATGTAGGTGCAATTTTTTTTTTTTTTT DNA 2: AAAAAAAAAAAAAAATTGCACCTACATGCAAGGGTA | 10 ln median PBM intensity, better of two orientations |
| GTGCAC_site10711 (dsDNA) DNA 1: TAATAAAATATGTACGTGCACATAATTATACTAAAA DNA 2: TTTTAGTATAATTATGTGCACGTACATATTTTATTA | 8.95 ln median PBM intensity, better of two orientations |
| GTGCAC_site10175 (dsDNA) DNA 1: ACTTTTTTGAACAACGTGCACGTATTCATAACAAAA DNA 2: TTTTGTTATGAATACGTGCACGTTGTTCAAAAAAGT | 8.77 ln median PBM intensity, better of two orientations |
| GTGCAC_site9794 (dsDNA) DNA 1: AAAAATATATATTCAGTGCATATAACAAAAATTATA DNA 2: TATAATTTTTGTTATATGCACTGAATATATATTTTT | 8.79 ln median PBM intensity, better of two orientations |
| GTGCAC_site9445 (dsDNA) DNA 1: TCCTTTATTTTTAAAGTGCATATACATGTACATTAT DNA 2: ATAATGTACATGTATATGCACTTTAAAAATAAAGGA | 8.63 ln median PBM intensity, better of two orientations |
| GTGCAC_site9783 (dsDNA) DNA 1: TAAATTTATATATAGGTGCGCAATTTGATAATAGTT DNA 2: AACTATTATCAAATTGCGCACCTATATATAAATTTA | 10 ln median PBM intensity, better of two orientations |
| GTGCAC_site10440 (dsDNA) DNA 1: TATTACACATATTATGTGCACATATATAATCAATAT DNA 2: ATATTGATTATATATGTGCACATAATATGTGTAATA | 8.5 ln median PBM intensity, better of two orientations |
| GTGCAC_site10077 (dsDNA) DNA 1: TTCATTCAAATTAACGTGCACATTATTAGTAAAAAC DNA 2: GTTTTTACTAATAATGTGCACGTTAATTTGAATGAA | 10 ln median PBM intensity, better of two orientations |
| GTGCAC_site10227 (dsDNA) DNA 1: TATACATATTTACAAGTGCATAATATTTTACAAAAA DNA 2: TTTTTGTAAAATATTATGCACTTGTAAATATGTATA | 8.65 ln median PBM intensity, better of two orientations |
